# Assay results published in US8580267B2, “Immunocytokines for tumour therapy with chemotherapeutic agents” (Philogen S.p.A., priority 2008, dated 2013).
# B1: F16: human monoclonal antibody specific to the extra-domain A1 of tenascin C; used in biotinylated SIP format for immunohistochemistry (antibody, V domains shown)
# VH: EVQLLESGGGLVQPGGSLRLSCAASGFTFSRYGASWVRQAPGKGLEWVSAISGSGGSTYYADSVKGRFTISRDNSKNTLYLQMNSLRAEDTAVYYCAKAHNAFDYWGQGTLVTVSR
# VL: SSELTQDPAVSVALGQTVRITCQGDSLRSYYASWYQQKPGQAPVLVIYGKNNRPSGIPDRFSGSSSGNTASLTITGAQAEDEADYYCNSSVYTMPPVVFGGGTKLTVL
# B2: improved variant of F16: 4A1-F16 having the Ala to Met mutation in VH CDR1, giving VH CDR1 SEQ ID NO: 18 (antibody, V domains shown)
# VH: EVQLLESGGGLVQPGGSLRLSCAASGFTFSRYGMSWVRQAPGKGLEWVSAISGSGGSTYYADSVKGRFTISRDNSKNTLYLQMNSLRAEDTAVYYCAKAHNAFDYWGQGTLVTVSR
# VL: SSELTQDPAVSVALGQTVRITCQGDSLRSYYASWYQQKPGQAPVLVIYGKNNRPSGIPDRFSGSSSGNTASLTITGAQAEDEADYYCNSSVYTMPPVVFGGGTKLTVL
# Columns and labels:
# [1] = tested on: subcutaneous U87 glioblastoma; assay: therapy study in subcutaneous glioma mouse model; settings: for effect on tumour growth: five administrations days 12-24, F16-IL2 20 μg i.v., temozolomide 0.525 mg i.p., temozolomide result by day 30
# Protocol: Subcutaneous glioblastoma bearing mice were obtained by a s.c. flank injection of 5×10^6 U87 cells in 8-week old female BALB/c nude mice [66]. Twelve days after tumour cell implantation, when tumours had reached a size of 250-300 mm^3, mice were staged to maximize uniformity among the groups (n=5).
# (§2) One group was injected i.v. (lateral tail vein) with 20 μg of F16-IL2 (corresponding to 6.6 μg of IL2) in a total volume of 100 μl PBS solution (Phosphate Buffer Saline), one was injected i.p. with 0.525 mg of temozolomide (corresponding to 75 mg/m^2) in a total volume of 150 μl saline 10% DMSO solution, a third group received both the i.v. injection of 20 μg F16-IL2 and the i.p. of 0.525 mg temozolomide, finally, the control group was injected i.p. with 150 μl of saline 10% DMSO.
# (§3) A schedule of five total administrations was established: on days 12, 15, 18, 21, 24 from the tumour cell injection into mice (day 0).
# (§4) Mice were monitored daily and tumours were measured with a digital caliper three times per week. Tumour volume was estimated using the formula: volume=length×width^2/2. Animals were sacrificed when tumours approached a volume of 3,000 mm^3 or when tumours turned necrotic and bleeding, according to the Swiss regulations and under a project license granted by the Veterinäramt des Kantons Zürich (198/2005).
# Tumour volumes are shown as average ±SD or SE. Kaplan-Meier survival curves were performed to display therapeutic efficacy in the subcutaneous glioma model.
# [2] = body weight of mice in the subcutaneous glioblastoma therapy study; format: in vivo, BALB/c nude mice
# Protocol: as §2, §3, §4
# TNC-A1 = molecular target: T1, TNC-A1 (Homo sapiens, UniProt P24821); assay: immunoreactivity after radiolabelling on TNC-A1-Sepharose resin; format: binding; settings: radiolabelled F16-IL2 on TNC-A1-Sepharose resin
# T1 construct: loading a sample of radiolabelled F16-IL2 onto TNC-A1-Sepharose resin
# T1 sequence (P24821 1076-1165 limits assumed): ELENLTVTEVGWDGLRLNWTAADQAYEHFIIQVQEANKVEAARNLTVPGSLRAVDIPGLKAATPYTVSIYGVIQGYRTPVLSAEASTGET
# Protocol: (§1) The in vivo targeting performance of F16-IL2 was evaluated by quantitative biodistribution analysis. […] Antibody immunoreactivity after labelling was evaluated by loading a sample of radiolabelled F16-IL2 onto TNC-A1-Sepharose resin, followed by radioactive counting of the flow-through and of the eluate fractions. Immunoreactivity, defined as the ratio between the counts of the eluted protein and the sum of the counts of the eluted and flow-through fractions, was 84%. Mice were sacrificed 24 hours after injection of F16-IL2 (10 μg, 3.6 μCi per mouse). Organs were weighed and radioactivity was counted with a Packard Cobra gamma counter. Radioactivity content of representative organs was expressed as the percentage of the injected dose per gram of tissue (% ID/g).
# subcutaneous U87 tumours = assay: quantitative biodistribution analysis in mice bearing subcutaneous U87 tumours; format: in vivo, BALB/c nude mice; settings: radioiodinated F16-IL2 i.v., 24 h after injection
# Protocol: as §1
# s.c. U87 tumours = assay: immunofluorescence assessment of tumour-infiltrating cells and microvascular density in subcutaneous glioma xenografts; format: in vivo, Balb/c nude mice; settings: anti-human IL2 staining, after three injections
# Protocol: To evaluate the role of inflammatory cell responses in vivo, female Balb/c nude mice bearing s.c. U87 tumours (3 mice per group) were treated on days 12, 15 and 18 after tumour cell implantation with either saline 10% DMSO (i.p.), F16-IL2 (i.v.), temozolomide (i.p.), and F16-IL2 (i.v.) plus temozolomide (i.p.). Mice were sacrificed 24 hours after the third injection, and tumours were excised and snap-frozen in OCT. […]
# Sections of 10 μm thickness were treated with ice-cold acetone, rehydrated in PBS and blocked with PBS 10% donkey serum+10% goat serum. […] Bound antibody was detected with fluorescent Alexa488- or Alexa594-coupled secondary antibodies (donkey anti-rat or goat anti-rabbit, BD Biosciences Pharmingen) and DAPI in a PBS 12% BSA solution.
# In each tumour section, the staining given by the primary antibodies was quantified in three representative 10× microscopic images using the ImageJ software (http://rsb.info.nih.gov/ij/).
# [3] = molecular target: T2, extra-domain A1 of tenascin C (Homo sapiens, UniProt P24821); assay: real-time interaction analysis on a BIAcore 3000 instrument; format: binding; settings: after affinity maturation
# T2 construct: F16 is a human monoclonal antibody specific to the extra-domain A1 of tenascin C [25]
# T2 sequence (P24821 1076-1165 limits assumed): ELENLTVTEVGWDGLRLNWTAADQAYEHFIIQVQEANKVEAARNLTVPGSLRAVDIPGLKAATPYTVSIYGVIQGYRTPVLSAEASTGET
# A1 domain of tenascin-C = molecular target: T3, A1 domain of tenascin-C (Homo sapiens, UniProt P24821); assay: immunohistochemistry on human glioblastoma specimens and U87 xenografts with F16; settings: biotinylated SIP format, 2 μg/ml; patterns and intensities comparable to L19
# T3 construct: from tissue; host or cells: human glioblastoma surgical specimens; U87 glioblastoma xenografts grown s.c. in nude mice
# Protocol: Freshly frozen human glioblastoma tissues were received from the Neurosurgery department of Basel University Hospital, Basel, Switzerland, and were stored at −80° C.
# For immunohistochemical procedures, the F16 antibody was used in biotinylated small immunoprotein (SIP) format. F16 is a human monoclonal antibody specific to the extra-domain A1 of tenascin C [25]. […] The SIP antibody format consists of a covalent homodimer in which each monomeric unit comprises a scFv fused to a human CH4 domain of the secretory isoform S2 of human IgE (as exemplified for antibody L19 in ref. [65]). This domain promotes the formation of homodimers that are further stabilized by disulfide bonds between the C-terminal cysteine residues, resulting in a 75 kDa homobivalent miniantibody. This SIP antibody was further biotinylated in order to avoid background staining given by the human endogenous IgE.
# Sections of 10 μm thickness were treated with ice-cold acetone, rehydrated in TBS (50 mM Tris, 100 mM NaCl, 0.001% Aprotinin, pH 7.4) and blocked with TBS 20% fetal calf serum. Biot-(SIP) F16 antibody was added onto the sections in a final concentration of 2 μg/ml. Bound antibody was detected with streptavidin-alkaline phosphatase complex (Biospa). Fast Red (Tablets Set, Sigma) was used as phosphatase substrate and sections were counterstained with Gill's hematoxylin no. 2 (Sigma). […]
# tenascin-C = tenascin-C (Homo sapiens, UniProt P24821); assay: binding of F16 with Ala to Met mutation in VH CDR1; settings: Ala to Met in position 4 of VH CDR1
# tenascin-C, sequence (P24821 23-2201): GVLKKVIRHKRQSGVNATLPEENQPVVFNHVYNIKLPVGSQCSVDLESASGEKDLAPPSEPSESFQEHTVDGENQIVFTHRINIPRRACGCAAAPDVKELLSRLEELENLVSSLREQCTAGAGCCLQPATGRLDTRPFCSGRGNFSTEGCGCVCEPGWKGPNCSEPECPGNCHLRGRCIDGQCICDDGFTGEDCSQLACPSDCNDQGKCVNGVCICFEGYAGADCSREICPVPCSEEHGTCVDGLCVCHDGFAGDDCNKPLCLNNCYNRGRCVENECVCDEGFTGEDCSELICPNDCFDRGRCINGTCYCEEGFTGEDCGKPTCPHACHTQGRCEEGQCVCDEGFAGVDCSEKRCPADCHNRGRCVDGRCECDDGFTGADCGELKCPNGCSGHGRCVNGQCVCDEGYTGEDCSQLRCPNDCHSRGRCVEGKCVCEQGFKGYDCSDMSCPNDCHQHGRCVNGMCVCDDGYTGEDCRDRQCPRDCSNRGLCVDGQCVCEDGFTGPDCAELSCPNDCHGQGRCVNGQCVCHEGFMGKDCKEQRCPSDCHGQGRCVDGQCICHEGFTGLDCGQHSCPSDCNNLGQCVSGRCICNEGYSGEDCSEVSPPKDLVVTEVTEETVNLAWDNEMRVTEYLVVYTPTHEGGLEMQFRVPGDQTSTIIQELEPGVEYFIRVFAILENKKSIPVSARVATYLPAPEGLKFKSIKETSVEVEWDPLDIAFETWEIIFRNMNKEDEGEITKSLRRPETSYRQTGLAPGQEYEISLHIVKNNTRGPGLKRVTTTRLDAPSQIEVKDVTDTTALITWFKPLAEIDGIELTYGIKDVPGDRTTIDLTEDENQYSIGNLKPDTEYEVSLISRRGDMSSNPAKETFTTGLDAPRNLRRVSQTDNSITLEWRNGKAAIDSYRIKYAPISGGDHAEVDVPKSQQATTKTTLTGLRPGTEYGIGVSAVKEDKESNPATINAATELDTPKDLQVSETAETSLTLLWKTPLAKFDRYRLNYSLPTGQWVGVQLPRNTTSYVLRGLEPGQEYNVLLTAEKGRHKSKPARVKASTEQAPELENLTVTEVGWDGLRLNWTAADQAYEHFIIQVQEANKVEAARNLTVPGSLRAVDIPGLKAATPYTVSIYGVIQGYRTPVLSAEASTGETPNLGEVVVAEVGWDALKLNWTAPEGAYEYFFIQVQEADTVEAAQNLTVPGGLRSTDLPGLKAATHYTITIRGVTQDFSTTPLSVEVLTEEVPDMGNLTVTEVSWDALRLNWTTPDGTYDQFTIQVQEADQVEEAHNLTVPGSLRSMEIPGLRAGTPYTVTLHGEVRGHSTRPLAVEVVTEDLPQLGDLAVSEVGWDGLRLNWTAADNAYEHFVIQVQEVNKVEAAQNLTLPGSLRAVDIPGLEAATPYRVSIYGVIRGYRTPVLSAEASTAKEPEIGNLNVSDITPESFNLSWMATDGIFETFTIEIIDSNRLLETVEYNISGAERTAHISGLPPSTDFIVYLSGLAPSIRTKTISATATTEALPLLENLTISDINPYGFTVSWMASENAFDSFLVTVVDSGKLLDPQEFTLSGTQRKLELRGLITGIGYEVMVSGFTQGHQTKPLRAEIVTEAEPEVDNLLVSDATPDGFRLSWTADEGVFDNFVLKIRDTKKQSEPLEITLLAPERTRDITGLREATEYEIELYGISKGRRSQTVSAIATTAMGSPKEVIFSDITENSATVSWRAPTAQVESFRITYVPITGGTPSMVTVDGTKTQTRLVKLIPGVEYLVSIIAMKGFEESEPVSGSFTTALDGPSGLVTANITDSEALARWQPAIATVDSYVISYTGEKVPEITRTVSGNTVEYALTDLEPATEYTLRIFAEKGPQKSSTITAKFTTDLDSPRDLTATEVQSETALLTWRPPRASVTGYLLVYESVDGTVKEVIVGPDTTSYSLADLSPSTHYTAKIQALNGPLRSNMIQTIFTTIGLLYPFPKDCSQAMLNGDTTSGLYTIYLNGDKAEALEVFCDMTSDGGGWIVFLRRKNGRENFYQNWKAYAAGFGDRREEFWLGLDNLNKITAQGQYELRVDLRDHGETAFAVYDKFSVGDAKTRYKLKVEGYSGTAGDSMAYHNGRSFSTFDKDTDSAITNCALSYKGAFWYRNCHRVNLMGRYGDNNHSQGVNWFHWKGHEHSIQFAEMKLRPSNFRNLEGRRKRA
# T3 sequence (P24821 23-2201): as above
molecule,measurement,setting,value
"Cn1nnc2c(C(N)=O)ncn2c1=O [temozolomide, 8-carbamoyl-3-methylimidazo[5,1-d]-1,2,3,5-tetrazin-4(3H)-one]",mice in which tumours started growing again,[1]; by day 45,3/5
same,effect on tumour growth,[1],virtually complete tumour regression
same,mice surviving over 3 months from the tumour cell injection,"[1]; n=5 per group, combination group alive and tumour-free",two mice
same,day before which the other animals were sacrificed,[1]; tumour had reached the cut-off size,< 106 days
same,"transient weight loss, nadir",[2]; after the fifth injection,10%
"F16-IL2: clinical-stage immunocytokine consisting of human IL-2 fused to the human antibody F16, specific to the A1 domain of tenascin-C","sacrifice of the last mouse, day from tumour cell inoculation","[1]; Kaplan-Meier survival, cut-off tumour size 3,000 mm^3",47 days
same,effect on tumour growth,[1],minor tumour growth retardation
same,immunoreactivity (eluted counts / eluted + flow-through counts),TNC-A1,84%
same,accumulation in the tumour,subcutaneous U87 tumours,2.3 % ID/g
same,tumour-to-blood ratio,subcutaneous U87 tumours,11.5
same,weight loss,"[2]; F16-IL2 20 μg i.v., five administrations",no weight loss
same,localization of the immunocytokine within the tumour,s.c. U87 tumours,perivascular region and in the tumour extracellular matrix
B1,dissociation constant,[3],low nanomolar range
same,staining of tumour sections,A1 domain of tenascin-C,strongly stain both experimental U87 tumours and glioblastomas from patients
B2,binding affinity to tenascin-C,tenascin-C,retaining high affinity binding to tenascin-C
